Experimental data taken from patent US20130089544A1 (AstraZeneca / MedImmune, published 2013).

Key:
[1] = molecular target: T1, human ErbB2, full length, on cells (human, UniProt P04626 23-1255); experiment: cell-based or functional assay
[2] = molecular target: T1, human ErbB2, full length, on cells; experiment: cell-based or functional assay; remark: listed apart in the source
[3] = molecular target: T2, human ErbB2 ECD-myc/His fusion protein (human, UniProt P04626 23-652); experiment: SPR, Biacore T100 high resolution; mAb captured on goat anti-human IgG, hHer-2(ECD)cMyc injected; 1:1 fit
T2 construct: Made in-house in 293T cells; also called hErbB2(ECD)/cMyc-His; huErbB2 (ECD)/c-myc-His; not shown: c-myc/His tag of the pSecTag2Hygro vector
Description: All experiments were performed using a Biacore T100 instrument. First, a high-density goat α human IgG antibody (Caltag H10500) surface was prepared over two CM5 Biacore chips using routine amine coupling. Each mAb was diluted in HBS-P running buffer containing 100 μg/ml Bovine serum albumin (BSA).
A capture level protocol was developed for all five mAbs. Before each antigen injection cycle, each mAb was captured for 15 to 30 seconds at a 20 μL/min flow rate. A 5-minute wash step followed each capture injection to stabilize each mAb baseline. […] The samples were prepared in the running buffer described above. All samples were randomly injected with several mAb capture/buffer inject cycles interspersed for double referencing. […] A flow rate of 50 μL/min. was used for all injection cycles.
All sensorgram data were fit to a 1:1 interaction model using CLAMP.

[4] = molecular target: T1, human ErbB2, full length, on cells; experiment: cell-based or functional assay; remark: listed apart in the source
[5] = molecular target: T1, human ErbB2, full length, on cells; experiment: cell-based or functional assay; remark: listed apart in the source
[6] = molecular target: T2, human ErbB2 ECD-myc/His fusion protein; experiment: SPR, Biacore 2000 medium resolution; mAb captured on goat anti-human IgG, ErbB2(ECD)-cMyc/His injected; 1:1 fit
Description: The binding affinity of eight of the anti-ErbB2 antibodies was measured by medium resolution Biacore. All experiments were performed using a Biacore 2000 instrument.
First, 12 high-density goat α-human IgG antibody surfaces over three CM5 Biacore chips were prepared using routine amine coupling. […] Before each antigen injection cycle, each mAb was captured for six to nine seconds at a 100 μL/min flow rate. A 2-minute wash step followed each capture injection to stabilize each mAb baseline. […] All samples were randomly injected with several mAb capture/buffer inject cycles interspersed for double referencing. […] A flow rate of 100 μL/min. was used for all injection cycles. The data was fit to a 1:1 interaction model using CLAMP.

[7] = molecular target: T1, human ErbB2, full length, on cells; experiment: cell-based or functional assay; remark: listed apart in the source
[8] = molecular target: T1, human ErbB2, full length, on cells; experiment: cell-based or functional assay; remark: listed apart in the source
[9] = molecular target: T2, human ErbB2 ECD-myc/His fusion protein; experiment: limited antigen ELISA, 31 ng/ml ErbB2 ECD-myc/His coated, supernatant 1:25
Description: […] […] Antigen-coated plates were washed three times, blocked with 1% non-fat skim milk/PBS for at least 30 minutes at room temperature, and then washed again three times. Each hybridoma line sample was titrated in 1% non-fat skim-milk/PBS 1:3 for 7 points starting from a 1:25 dilution. […] The next day, plates were washed three times and incubated with 50 μl of 400 ng/ml immunopure Goat anti-human IgG (Fc)-HRP (Pierce catalog #31416) for 1 hour at room temperature. Then, the plates were extensively washed and pat dried on paper towel to remove residual HRP in wells. HRP substrate TMB (enhanced K-blue TMB, Neogen catalog #308177) was added to each well and incubated for 30 min. The reaction was stopped by addition of 1N HCl. Optical density at 450 nm was read on a microplate reader (Titerteck Multiskan Ascent).

B1: monoclonal antibody 1.39 (antibody, V domains shown)
VH: EVQLVESGGGLVKPGGSLRLSCAASGFTFSSYSMNWVRQAPGKGLEWVSSISSSSSYIYYADSVKGRFTISRDNAKNSLYLQMNSLRAEDTAVYYCARGGDGYNYYYFDYWGQGTLVTVSS
VL: DIVMTQSPDSLAVSLGERATITCKSSQSVFFRSNNKNCLAWYQQRPGQPPNLLIYWASSRESGVPDRFSGSGSGTDFALTISSLQTEDVAVYYCQQYFGSPFTFGPGTKVDIK
notes: Fully human IgG (gamma/kappa) from a XenoMouse XM3B-3 hybridoma; constant regions not tied to it; also called 1.39.1; 1.39.2
[1]
  1 hr pTyr inhibition % (Heregulin-induced ErbB2 phosphorylation in MCF7 cells, hybridoma supernatant): 82%
  24 hr pTyr inhibition % (Heregulin-induced ErbB2 phosphorylation in MCF7 cells, hybridoma supernatant): 99%
[2]
  % Inhibition @10 µg/ml, Heregulin-induced MCF7 cell proliferation: 89%
  EC50 (ng/ml), inhibition of Heregulin-induced MCF7 cell proliferation: 479 ng/mL
[3]
  Kd: 13.4 nM
  koff: 0.000214 s⁻¹
  kon: 16000 M⁻¹ s⁻¹
[4]
  EC50 (ng/ml) n1, inhibition of Heregulin-induced ErbB2 phosphorylation in MCF7 cells: 46.9 ng/mL
  EC50 (ng/ml) n2, inhibition of Heregulin-induced ErbB2 phosphorylation in MCF7 cells: 26.3 ng/mL
[5]
  N1 % Inhibition @40 µg/ml, BT474 cell proliferation: 29%
  N1 EC50 (ng/ml), inhibition of BT474 cell proliferation: 156 ng/mL
  N2 % Inhibition @40 µg/ml, BT474 cell proliferation: 40%
  N2 EC50 (ng/ml), inhibition of BT474 cell proliferation: 42.3 ng/mL
[6]
  Kd: 2 nM
  koff: 0.000236 s⁻¹
  kon: 115000 M⁻¹ s⁻¹
[7]
  % inhibition @36 µg/ml, SKBR3 cell proliferation: 41%
  EC50 (ng/ml), inhibition of SKBR3 cell proliferation: 68.9 ng/mL
[8]
  % Inhibition @10 µg/ml (n1), ErbB2 phosphorylation in BT474 cells at 48 hours: 37%
  % Inhibition @10 µg/ml (n2), ErbB2 phosphorylation in BT474 cells at 48 hours: 26%
[9]
  LA at 31 ng/ml (OD): 2.57 OD 450 nm
